We go through two molecules from article PMC5662768 (Scientific Reports, 2017).

This test has as its target T1, glycosylated extracellular domain of human CD38 (aa 46-300) (Homo sapiens, UniProt P28907, glycosylation sites intact (glycosylated)).
T1 construct: CD38, human, extracellular domain aa 46-300 with intact glycosylation sites; Amine-coupled to AR2G biosensors in the BLI experiments; also called recombinant human CD38; ectodomain of human CD38; source: secretory protein from the pCSE2.5 vector
Kind of test: BLI; Octet RED384; recombinant human CD38 amine-coupled to AR2G biosensors; 100 nM and 1 uM nanobody, 5 min association, 10 min dissociation; 25 C; HBS-EP+ pH 7.4; fit 1:1; off-rates only. The settings on record: both partners purified.

B1: CD38-specific nanobody MU1053 (family 14), monovalent, from HEK-6E cells (VHH)
VHH: DVQLQESGGGLVQAGGSLRLSCTGSGRTFRNYPMAWFRQAPGKEREFVAGITWVGASTLYADFAKGRFTISRDNAKNTVYLQMNSLKPEDTAVYSCAAGRGIVAGRIPAEYADWGQGTQVTVSS
notes: structure of MU1053 with CD38 is in PDB 5F1O (nanobody chain); also called l-15.3a; source: HEK-6E, transiently transfected (pCSE2.5), purified (Ni-NTA); not shown: His6, C-terminal, kept; Myc, C-terminal, kept
Turning to B1, the koff turned out to be 0.0009 s⁻¹.

B2: single chain variable fragment (scFv) of daratumumab (scFv, V domains shown)
VH: EVQLLESGGGLVQPGGSLRLSCAVSGFTFNSFAMSWVRQAPGKGLEWVSAISGSGGGTYYADSVKGRFTISRDNSKNTLYLQMNSLRAEDTAVYFCAKDKILWFGEPVFDYWGQGTLVTVSS
VL: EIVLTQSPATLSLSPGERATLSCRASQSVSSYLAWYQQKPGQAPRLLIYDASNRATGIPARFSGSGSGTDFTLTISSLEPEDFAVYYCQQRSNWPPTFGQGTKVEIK
notes: VH domain of daratumumab; 15GS linker; VL domain of daratumumab; Order VH - linker - VL as the methods tell it; also called Dara scFv; Daratumumab scFv; source: HEK-6E, transiently transfected (pCSE2.5)
B2: the off-rate (koff) came to 0.0044 s⁻¹.
